According to IntAct's records for PubMed 31515488:

B1: Cyclin-dependent kinase 4 inhibitor C (Homo sapiens), P42773 (parent)
chain: MAEPWGNELASAAARGDLEQLTSLLQNNVNVNAQNGFGRTALQVMKLGNPEIARRLLLRGANPDLKDRTGFAVIHDAARAGFLDTLQTLLEFQADVNIEDNEGNLPLHLAAKEGHLRVVEFLVKHTASNVGHRNHKGDTACDLARLYGRNEVVSLMQANGAGGATNLQ
B2: Zinc finger and BTB domain-containing protein 9 (Homo sapiens), Q96C00 (parent)
chain: METPTPLPPVPASPTCNPAPRTIQIEFPQHSSSLLESLNRHRLEGKFCDVSLLVQGRELRAHKAVLAAASPYFHDKLLLGDAPRLTLPSVIEADAFEGLLQLIYSGRLRLPLDALPAHLLVASGLQMWQVVDQCSEILRELETSGGGISARGGNSYHALLSTTSSTGGWCIRSSPFQTPVQSSASTESPASTESPVGGEGSELGEVLQIQVEEEEEEEEDDDDEDQGSATLSQTPQPQRVSGVFPRPHGPHPLPMTATPRKLPEGESAPLELPAPPALPPKIFYIKQEPFEPKEEISGSGTQPGGAKEETKVFSGGDTEGNGELGFLLPSGPGPTSGGGGPSWKPVDLHGNEILSGGGGPGGAGQAVHGPVKLGGTPPADGKRFGCLCGKRFAVKPKRDRHIMLTFSLRPFGCGICNKRFKLKHHLTEHMKTHAGALHACPHCGRRFRVHACFLRHRDLCKGQGWATAHWTYK
partner: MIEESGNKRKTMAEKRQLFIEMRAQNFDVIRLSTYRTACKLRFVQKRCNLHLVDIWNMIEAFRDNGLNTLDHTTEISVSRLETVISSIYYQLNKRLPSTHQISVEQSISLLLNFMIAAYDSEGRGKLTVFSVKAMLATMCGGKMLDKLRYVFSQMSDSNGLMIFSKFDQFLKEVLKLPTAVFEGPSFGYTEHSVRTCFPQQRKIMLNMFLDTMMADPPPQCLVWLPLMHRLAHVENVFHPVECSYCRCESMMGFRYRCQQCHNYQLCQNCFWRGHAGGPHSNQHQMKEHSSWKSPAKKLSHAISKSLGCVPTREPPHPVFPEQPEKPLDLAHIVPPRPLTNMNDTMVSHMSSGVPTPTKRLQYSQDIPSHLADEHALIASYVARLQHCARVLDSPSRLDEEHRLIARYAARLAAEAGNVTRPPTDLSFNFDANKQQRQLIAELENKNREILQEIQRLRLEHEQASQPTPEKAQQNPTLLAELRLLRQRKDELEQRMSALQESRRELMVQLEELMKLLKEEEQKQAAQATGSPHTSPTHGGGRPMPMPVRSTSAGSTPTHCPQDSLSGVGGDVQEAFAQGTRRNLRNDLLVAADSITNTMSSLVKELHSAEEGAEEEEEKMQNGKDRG
B3: Zinc finger and BTB domain-containing protein 9 (Homo sapiens), Q96C00 (parent)
chain: B2 chain
partner: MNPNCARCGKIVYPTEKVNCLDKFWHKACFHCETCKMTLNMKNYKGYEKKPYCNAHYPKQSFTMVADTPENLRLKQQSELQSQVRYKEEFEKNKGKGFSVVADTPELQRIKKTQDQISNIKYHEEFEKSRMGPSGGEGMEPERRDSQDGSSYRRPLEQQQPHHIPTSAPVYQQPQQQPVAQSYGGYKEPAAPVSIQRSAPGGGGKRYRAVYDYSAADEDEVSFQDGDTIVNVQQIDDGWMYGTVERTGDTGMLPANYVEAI
B4: Ras association domain-containing protein 7 (Homo sapiens), Q02833 (parent)
chain: MLLGLAAMELKVWVDGIQRVVCGVSEQTTCQEVVIALAQAIGQTGRFVLVQRLREKERQLLPQECPVGAQATCGQFASDVQFVLRRTGPSLAGRPSSDSCPPPERCLIRASLPVKPRAALGCEPRKTLTPEPAPSLSRPGPAAPVTPTPGCCTDLRGLELRVQRNAEELGHEAFWEQELRREQAREREGQARLQALSAATAEHAARLQALDAQARALEAELQLAAEAPGPPSPMASATERLHQDLAVQERQSAEVQGSLALVSRALEAAERALQAQAQELEELNRELRQCNLQQFIQQTGAALPPPPRPDRGPPGTQGPLPPAREESLLGAPSESHAGAQPRPRGGPHDAELLEVAAAPAPEWCPLAAQPQAL
B5: Protein BANP (Homo sapiens), Q8N9N5 (parent)
chain: MMSEHDLADVVQIAVEDLSPDHPVVLENHVVTDEDEPALKRQRLEINCQDPSIKTICLRLDSIEAKLQALEATCKSLEEKLDLVTNKQHSPIQVPMVAGSPLGATQTCNKVRCVVPQTTVILNNDRQNAIVAKMEDPLSNRAPDSLENVISNAVPGRRQNTIVVKVPGQEDSHHEDGESGSEASDSVSSCGQAGSQSIGSNVTLITLNSEEDYPNGTWLGDENNPEMRVRCAIIPSDMLHISTNCRTAEKMALTLLDYLFHREVQAVSNLSGQGKHGKKQLDPLTIYGIRCHLFYKFGITESDWYRIKQSIDSKCRTAWRRKQRGQSLAVKSFSRRTPNSSSYCPSEPMMSTPPPASELPQPQPQPQALHYALANAQQVQIHQIGEDGQVQVGHLHIAQVPQGEQVQITQDSEGNLQIHHVGQDGQLLEATRIPCLLAPSVFKASSGQVLQGAQLIAVASSDPAAAGVDGSPLQGSDIQVQYVQLAPVSDHTAGAQTAEALQPTLQPEMQLEHGAIQIQ
partner: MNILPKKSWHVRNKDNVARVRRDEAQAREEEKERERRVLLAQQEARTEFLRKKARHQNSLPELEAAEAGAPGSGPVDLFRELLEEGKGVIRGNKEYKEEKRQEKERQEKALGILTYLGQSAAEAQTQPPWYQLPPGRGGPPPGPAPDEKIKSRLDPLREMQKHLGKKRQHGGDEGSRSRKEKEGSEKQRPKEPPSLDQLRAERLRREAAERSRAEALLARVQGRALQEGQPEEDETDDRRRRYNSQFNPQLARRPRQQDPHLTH
B6: Myosin light polypeptide 6 (Homo sapiens), P60660 (parent)
chain: MCDFTEDQTAEFKEAFQLFDRTGDGKILYSQCGDVMRALGQNPTNAEVLKVLGNPKSDEMNVKVLDFEHFLPMLQTVAKNKDQGTYEDYVEGLRVFDKEGNGTVMGAEIRHVLVTLGEKMTEEEVEMLVAGHEDSNGCINYEAFVRHILSG
B7: Modulator of apoptosis 1 (Homo sapiens), Q96BY2 (parent)
chain: MTLRLLEDWCRGMDMNPRKALLIAGISQSCSVAEIEEALQAGLAPLGEYRLLGRMFRRDENRKVALVGLTAETSHALVPKEIPGKGGIWRVIFKPPDPDNTFLSRLNEFLAGEGMTVGELSRALGHENGSLDPEQGMIPEMWAPMLAQALEALQPALQCLKYKKLRVFSGRESPEPGEEEFGRWMFHTTQMIKAWQVPDVEKRRRLLESLRGPALDVIRVLKINNPLITVDECLQALEEVFGVTDNPRELQVKYLTTYQKDEEKLSAYVLRLEPLLQKLVQRGAIERDAVNQARLDQVIAGAVHKTIRRELNLPEDGPAPGFLQLLVLIKDYEAAEEEEALLQAILEGNFT
partner: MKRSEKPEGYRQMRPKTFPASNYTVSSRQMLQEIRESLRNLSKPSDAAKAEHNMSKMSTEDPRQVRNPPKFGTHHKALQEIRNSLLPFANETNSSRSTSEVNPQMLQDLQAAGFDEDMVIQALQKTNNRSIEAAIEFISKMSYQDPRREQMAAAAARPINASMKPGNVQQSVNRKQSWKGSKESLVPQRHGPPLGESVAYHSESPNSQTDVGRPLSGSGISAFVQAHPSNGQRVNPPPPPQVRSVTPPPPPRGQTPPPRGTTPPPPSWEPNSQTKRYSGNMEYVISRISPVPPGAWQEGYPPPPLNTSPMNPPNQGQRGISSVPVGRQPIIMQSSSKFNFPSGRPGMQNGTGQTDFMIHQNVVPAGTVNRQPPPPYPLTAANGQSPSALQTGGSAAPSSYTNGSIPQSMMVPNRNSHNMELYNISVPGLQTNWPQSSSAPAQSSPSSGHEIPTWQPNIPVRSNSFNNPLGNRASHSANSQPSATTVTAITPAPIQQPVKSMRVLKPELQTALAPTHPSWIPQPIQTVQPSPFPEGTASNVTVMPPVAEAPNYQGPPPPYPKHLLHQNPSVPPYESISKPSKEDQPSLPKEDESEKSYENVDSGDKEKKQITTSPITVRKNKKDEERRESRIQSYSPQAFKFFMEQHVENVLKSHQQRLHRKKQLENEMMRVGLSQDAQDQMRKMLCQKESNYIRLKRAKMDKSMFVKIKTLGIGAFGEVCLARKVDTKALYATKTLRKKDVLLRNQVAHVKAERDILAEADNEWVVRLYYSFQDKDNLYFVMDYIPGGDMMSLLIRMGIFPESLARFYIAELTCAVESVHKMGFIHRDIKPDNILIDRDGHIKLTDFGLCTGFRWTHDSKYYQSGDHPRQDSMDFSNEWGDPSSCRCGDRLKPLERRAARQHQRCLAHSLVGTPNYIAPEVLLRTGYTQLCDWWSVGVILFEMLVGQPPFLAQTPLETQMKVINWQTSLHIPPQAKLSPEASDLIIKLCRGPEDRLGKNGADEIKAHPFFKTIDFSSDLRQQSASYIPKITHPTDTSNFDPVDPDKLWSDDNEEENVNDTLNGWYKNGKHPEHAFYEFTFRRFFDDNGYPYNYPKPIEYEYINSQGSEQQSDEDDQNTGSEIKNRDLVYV
B8: Cyclin-D1-binding protein 1 (Homo sapiens), O95273 (parent)
chain: MASATAPAAAVPTLASPLEQLRHLAEELRLLLPRVRVGEAQETTEEFNREMFWRRLNEAAVTVSREATTLTIVFSQLPLPSPQETQKFCEQVHAAIKAFIAVYYLLPKDQGITLRKLVRGATLDIVDGMAQLMEVLSVTPTQSPENNDLISYNSVWVACQQMPQIPRDNKAAALLMLTKNVDFVKDAHEEMEQAVEECDPYSGLLNDTEENNSDNHNHEDDVLGFPSNQDLYWSEDDQELIIPCLALVRASKACLKKIRMLVAENGKKDQVAQLDDIVDISDEISPSVDDLALSIYPPMCHLTVRINSAKLVSVLKKALEITKASHVTPQPEDSWIPLLINAIDHCMNRIKELTQSELEL
partner: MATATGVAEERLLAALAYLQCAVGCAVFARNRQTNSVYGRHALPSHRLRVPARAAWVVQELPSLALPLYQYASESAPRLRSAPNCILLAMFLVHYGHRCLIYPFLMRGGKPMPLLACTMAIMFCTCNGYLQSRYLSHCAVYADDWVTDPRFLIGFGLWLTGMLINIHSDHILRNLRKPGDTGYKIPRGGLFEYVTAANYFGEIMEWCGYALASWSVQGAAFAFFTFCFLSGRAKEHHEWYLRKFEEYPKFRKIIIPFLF
B9: AP-4 complex accessory subunit RUSC1 (Homo sapiens), Q9BVN2 (parent)
chain: MLSPQRALLCNLNHIHLQHVSLGLHLSRRPELQEGPLSTPPPPGDTGGKESRGPCSGTLVDANSNSPAVPCRCCQEHGPGLENRQDPSQEEEGAASPSDPGCSSSLSSCSDLSPDESPVSVYLRDLPGDEDAHPQPSIIPLEQGSPLASAGPGTCSPDSFCCSPDSCSGASSSPDPGLDSNCNALTTCQDVPSPGLEEEDERAEQDLPTSELLEADDGKIDAGKTEPSWKINPIWKIDTEKTKAEWKTTENNNTGWKNNGNVNSSWKSEPEKFDSGWKTNTRITDSGSKTDAGKIDGGWRSDVSEEPVPHRTITSFHELAQKRKRGPGLPLVPQAKKDRSDWLIVFSPDTELPPSGSPGGSSAPPREVTTFKELRSRSRAPAPPVPPRDPPVGWALVPPRPPPPPVPPRRKKNRPGLQPIAEGQSEEGRAVSPAAGEEAPAAKEPGAQAGLEVRSSWSFAGVPGAQRLWMAEAQSGTGQLQEQKKGLLIAVSVSVDKIISHFGAARNLVQKAQLGDSRLSPDVGHLVLTTLCPALHALVADGLKPFRKDLITGQRRSSPWSVVEASVKPGSSTRSLGTLYSQVSRLAPLSSSRSRFHAFILGLLNTKQLELWFSSLQEDAGLLSLLYLPTGFFSLARGGCPSLSTELLLLLQPLSVLTFHLDLLFEHHHHLPLGPPQAPAPPGPPPALQQTMQAMLHFGGRLAQSLRGTSKEAASDPSDSPNLPTPGSWWEQLTQASRVYASGGTEGFPLSRWAPGRHGTAAEEGAQERPLPTDEMAPGRGLWLGRLFGVPGGPAENENGALKSRRPSSWLPPTVSVLALVKRGAPPEMPSPQELEASAPRMVQTHRAVRALCDHTAARPDQLSFRRGEVLRVITTVDEDWLRCGRDGMEGLVPVGYTSLVL

Variants of: B1
Conditions: with cdk6_human CDK6, Q00534
cdk6_human CDK6, Q00534, sequence (Q00534 whole entry): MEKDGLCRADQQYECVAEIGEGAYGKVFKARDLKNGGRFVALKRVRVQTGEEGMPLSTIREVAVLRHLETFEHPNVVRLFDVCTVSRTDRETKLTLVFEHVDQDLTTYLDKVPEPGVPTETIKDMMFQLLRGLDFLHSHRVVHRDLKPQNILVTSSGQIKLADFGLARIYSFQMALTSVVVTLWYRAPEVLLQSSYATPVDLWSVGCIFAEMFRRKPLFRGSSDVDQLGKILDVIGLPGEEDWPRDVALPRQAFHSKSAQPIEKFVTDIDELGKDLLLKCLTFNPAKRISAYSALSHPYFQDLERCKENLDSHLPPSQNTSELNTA

effect of a mutation on the interaction	Variant
with no effect	R133Q

Variants of: B2
Conditions: with dtnb_human DTNB

effect of a mutation on the interaction	Variant
with no effect	S173C

Variants of: B3
Conditions: with lasp1_human LASP1, Q14847

effect of a mutation on the interaction	Variant
with no effect	S173C

Variants of: B4
Conditions: with nck2_human NCK2, O43639
nck2_human NCK2, O43639, sequence (O43639 whole entry): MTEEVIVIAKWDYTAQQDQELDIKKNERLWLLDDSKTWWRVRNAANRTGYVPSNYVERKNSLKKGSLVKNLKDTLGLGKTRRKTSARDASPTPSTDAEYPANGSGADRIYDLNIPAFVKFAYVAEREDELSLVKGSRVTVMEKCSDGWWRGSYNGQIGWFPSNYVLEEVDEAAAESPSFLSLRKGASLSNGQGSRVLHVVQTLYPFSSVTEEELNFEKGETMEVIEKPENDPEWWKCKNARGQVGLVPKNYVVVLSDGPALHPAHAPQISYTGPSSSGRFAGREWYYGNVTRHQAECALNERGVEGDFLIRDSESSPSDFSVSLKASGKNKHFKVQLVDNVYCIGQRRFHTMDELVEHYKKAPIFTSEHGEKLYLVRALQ

effect of a mutation on the interaction	Variant
with no effect	R156Q

Variants of: B5
Conditions: with leng1_human LENG1, Q96BZ8

effect of a mutation on the interaction	Variant
with no effect	P348S

Variants of: B6
Conditions: with ats12_human ADAMTS12, P58397
ats12_human ADAMTS12, P58397, sequence (P58397 whole entry): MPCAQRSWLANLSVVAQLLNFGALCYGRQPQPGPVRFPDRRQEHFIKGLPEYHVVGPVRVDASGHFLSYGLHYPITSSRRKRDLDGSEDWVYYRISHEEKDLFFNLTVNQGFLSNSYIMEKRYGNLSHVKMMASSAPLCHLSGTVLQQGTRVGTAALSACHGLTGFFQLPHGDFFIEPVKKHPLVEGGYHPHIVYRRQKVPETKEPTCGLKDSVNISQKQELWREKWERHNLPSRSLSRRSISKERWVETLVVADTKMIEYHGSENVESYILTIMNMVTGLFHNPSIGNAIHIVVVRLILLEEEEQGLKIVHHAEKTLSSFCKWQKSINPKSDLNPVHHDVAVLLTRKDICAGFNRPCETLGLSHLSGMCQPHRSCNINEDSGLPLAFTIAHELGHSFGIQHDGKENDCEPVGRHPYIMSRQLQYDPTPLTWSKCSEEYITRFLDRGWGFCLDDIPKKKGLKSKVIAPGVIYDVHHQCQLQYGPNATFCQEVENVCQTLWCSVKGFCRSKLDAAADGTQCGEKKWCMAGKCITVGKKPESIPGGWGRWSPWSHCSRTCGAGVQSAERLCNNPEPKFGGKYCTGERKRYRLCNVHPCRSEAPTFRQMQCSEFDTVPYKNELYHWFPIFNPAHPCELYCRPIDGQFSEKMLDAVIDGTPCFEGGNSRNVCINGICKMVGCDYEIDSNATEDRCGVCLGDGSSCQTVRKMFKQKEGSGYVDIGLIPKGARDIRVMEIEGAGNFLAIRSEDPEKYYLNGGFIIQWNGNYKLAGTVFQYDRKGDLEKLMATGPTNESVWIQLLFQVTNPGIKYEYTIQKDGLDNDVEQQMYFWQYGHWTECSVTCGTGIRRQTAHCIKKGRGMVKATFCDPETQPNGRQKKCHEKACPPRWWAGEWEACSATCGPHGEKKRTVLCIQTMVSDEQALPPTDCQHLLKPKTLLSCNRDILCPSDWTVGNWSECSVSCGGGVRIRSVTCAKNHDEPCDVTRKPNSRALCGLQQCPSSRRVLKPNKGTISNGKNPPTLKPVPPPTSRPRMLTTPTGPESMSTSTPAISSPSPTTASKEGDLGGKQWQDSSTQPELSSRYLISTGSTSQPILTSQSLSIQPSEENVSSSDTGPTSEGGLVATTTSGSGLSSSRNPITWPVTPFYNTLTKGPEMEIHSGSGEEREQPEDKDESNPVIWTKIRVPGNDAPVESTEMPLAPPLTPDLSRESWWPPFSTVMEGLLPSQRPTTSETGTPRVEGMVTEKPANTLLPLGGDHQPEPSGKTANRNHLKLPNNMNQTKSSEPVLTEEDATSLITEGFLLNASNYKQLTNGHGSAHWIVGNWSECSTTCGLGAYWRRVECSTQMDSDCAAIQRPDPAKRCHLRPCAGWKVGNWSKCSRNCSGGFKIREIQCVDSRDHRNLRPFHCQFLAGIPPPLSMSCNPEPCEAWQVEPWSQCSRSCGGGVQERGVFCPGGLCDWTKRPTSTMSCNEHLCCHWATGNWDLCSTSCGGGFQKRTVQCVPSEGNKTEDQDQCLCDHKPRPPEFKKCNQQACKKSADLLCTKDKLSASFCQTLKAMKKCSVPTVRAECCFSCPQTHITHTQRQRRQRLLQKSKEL

effect of a mutation on the interaction	Variant
disrupting interaction strength	C138S

Variants of: B6
Conditions: with cpsf5_human NUDT21, O43809
cpsf5_human NUDT21, O43809, sequence (O43809 whole entry): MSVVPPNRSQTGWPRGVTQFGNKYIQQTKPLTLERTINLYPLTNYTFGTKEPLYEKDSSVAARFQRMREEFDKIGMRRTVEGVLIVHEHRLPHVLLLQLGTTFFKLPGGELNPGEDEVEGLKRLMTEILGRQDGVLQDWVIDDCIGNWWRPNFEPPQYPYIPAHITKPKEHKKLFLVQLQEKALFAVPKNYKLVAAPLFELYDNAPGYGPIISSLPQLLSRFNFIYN

effect of a mutation on the interaction	Variant
disrupting interaction strength	C138S

Variants of: B7
Conditions: with lats1_human LATS1, O95835

effect of a mutation on the interaction	Variant
disrupting interaction strength	R57K

Variants of: B8
Conditions: with s5a1_human SRD5A1, P18405

effect of a mutation on the interaction	Variant
disrupting interaction strength	I277T

Variants of: B9
Conditions: with pnma1_human PNMA1, Q8ND90
pnma1_human PNMA1, Q8ND90, sequence (Q8ND90 whole entry): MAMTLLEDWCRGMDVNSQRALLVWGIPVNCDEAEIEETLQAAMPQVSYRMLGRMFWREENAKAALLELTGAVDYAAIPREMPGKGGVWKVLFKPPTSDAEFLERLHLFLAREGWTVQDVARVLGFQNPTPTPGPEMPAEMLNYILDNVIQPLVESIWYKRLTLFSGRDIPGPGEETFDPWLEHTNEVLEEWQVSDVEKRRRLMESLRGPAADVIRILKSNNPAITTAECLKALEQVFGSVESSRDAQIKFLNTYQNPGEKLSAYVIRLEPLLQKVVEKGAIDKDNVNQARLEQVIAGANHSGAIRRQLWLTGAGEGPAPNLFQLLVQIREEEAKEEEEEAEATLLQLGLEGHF

effect of a mutation on the interaction	Variant
with no effect	V493A

Variants of: B9
Conditions: with fam9b_human FAM9B

effect of a mutation on the interaction	Variant
with no effect	V493A
